Reference: publication PMC7367873, “Dissecting the sequence determinants for dephosphorylation by the catalytic subunits of phosphatases PP1 and PP2A” (Nature Communications, 2020)

B1: NXF1 (protein, UniProt Q9UBU9 2-619, looked up)
Nuclear RNA export factor 1: ADEGKSYSEHDDERVNFPQRKKKGRGPFRWKYGEGNRRSGRGGSGIRSSRLEEDDGDVAMSDAQDGPRVRYNPYTTRPNRRGDTWHDRDRIHVTVRRDRAPPERGGAGTSQDGTSKNWFKITIPYGRKYDKAWLLSMIQSKCSVPFTPIEFHYENTRAQFFVEDASTASALKAVNYKILDRENRRISIIINSSAPPHTILNELKPEQVEQLKLIMSKRYDGSQQALDLKGLRSDPDLVAQNIDVVLNRRSCMAATLRIIEENIPELLSLNLSNNRLYRLDDMSSIVQKAPNLKILNLSGNELKSERELDKIKGLKLEELWLDGNSLCDTFRDQSTYISAIRERFPKLLRLDGHELPPPIAFDVEAPTTLPPCKGSYFGTENLKSLVLHFLQQYYAIYDSGDRQGLLDAYHDGACCSLSIPFIPQNPARSSLAEYFKDSRNVKKLKDPTLRFRLLKHTRLNVVAFLNELPKTQHDVNSFVVDISAQTSTLLCFSVNGVFKEVDGKSRDSLRAFTRTFIAVPASNSGLCIVNDELFVRNASSEEIQRAFAMPAPTPSSSPVPTLSPEQQEMLQAFSTQSGMNLEWSQKCLQDNNWDYTRSAQAFTHLKAKGEIPEVAFMK
B2: TFE3 (protein, UniProt P19532 1-575, looked up)
Transcription factor E3: MSHAAEPARDGVEASAEGPRAVFVLLEERRPADSAQLLSLNSLLPESGIVADIELENVLDPDSFYELKSQPLPLRSSLPISLQATPATPATLSASSSAGGSRTPAMSSSSSSRVLLRQQLMRAQAQEQERRERREQAAAAPFPSPAPASPAISVVGVSAGGHTLSRPPPAQVPREVLKVQTHLENPTRYHLQQARRQQVKQYLSTTLGPKLASQALTPPPGPASAQPLPAPEAAHTTGPTGSAPNSPMALLTIGSSSEKEIDDVIDEIISLESSYNDEMLSYLPGGTTGLQLPSTLPVSGNLLDVYSSQGVATPAITVSNSCPAELPNIKREISETEAKALLKERQKKDNHNLIERRRRFNINDRIKELGTLIPKSSDPEMRWNKGTILKASVDYIRKLQKEQQRSKDLESRQRSLEQANRSLQLRIQELELQAQIHGLPVPPTPGLLSLATTSASDSLKPEQLDIEEEGRPGAATFHVGGGPAQNAPHQQPPAPPSDALLDLHFPSDHLGDLGDPFHLGLEDILMEEEEGVVGGLSGGALSPLRAASDPLLSSVSPAVSKASSRRSSFSMEEES
B3: SAFB (protein, UniProt Q15424 2-915, looked up)
Scaffold attachment factor B1: AETLSGLGDSGAAGAAALSSASSETGTRRLSDLRVIDLRAELRKRNVDSSGNKSVLMERLKKAIEDEGGNPDEIEITSEGNKKTSKRSSKGRKPEEEGVEDNGLEENSGDGQEDVETSLENLQDIDIMDISVLDEAEIDNGSVADCVEDDDADNLQESLSDSRELVEGEMKELPEQLQEHAIEDKETINNLDTSSSDFTILQEIEEPSLEPENEKILDILGETCKSEPVKEESSELEQPFAQDTSSVGPDRKLAEEEDLFDSAHPEEGDLDLASESTAHAQSSKADSLLAVVKREPAEQPGDGERTDCEPVGLEPAVEQSSAASELAEASSEELAEAPTEAPSPEARDSKEDGRKFDFDACNEVPPAPKESSTSEGADQKMSSPEDDSDTKRLSKEEKGRSSCGRNFWVSGLSSTTRATDLKNLFSKYGKVVGAKVVTNARSPGARCYGFVTMSTAEEATKCINHLHKTELHGKMISVEKAKNEPVGKKTSDKRDSDGKKEKSSNSDRSTNLKRDDKCDRKDDAKKGDDGSGEKSKDQDDQKPGPSERSRATKSGSRGTERTVVMDKSKGVPVISVKTSGSKERASKSQDRKSASREKRSVVSFDKVKEPRKSRDSESHSRVRERSEREQRMQAQWEREERERLEIARERLAFQRQRLERERMERERLERERMHVEHERRREQERIHREREELRRQQELRYEQERRPAVRRPYDLDRRDDAYWPEAKRAALDERYHSDFNRQDRFHDFDHRDRGRYPDHSVDRREGSRSMMGEREGQHYPERHGGPERHGRDSRDGWGGYGSDKRMSEGRGLPPPPRRDWGDHGRREDDRSWQGTADGGMMDRDHKRWQGGERSMSGHSGPGHMMNRGGMSGRGSFAPGGASRGHPIPHGGMQGGFGGQSRGSRPSDARFTRRY
B4: THRAP3 (protein, UniProt Q9Y2W1 2-955, looked up)
Thyroid hormone …: SKTNKSKSGSRSSRSRSASRSRSRSFSKSRSRSRSLSRSRKRRLSSRSRSRSYSPAHNRERNHPRVYQNRDFRGHNRGYRRPYYFRGRNRGFYPWGQYNRGGYGNYRSNWQNYRQAYSPRRGRSRSRSPKRRSPSPRSRSHSRNSDKSSSDRSRRSSSSRSSSNHSRVESSKRKSAKEKKSSSKDSRPSQAAGDNQGDEAKEQTFSGGTSQDTKASESSKPWPDATYGTGSASRASAVSELSPRERSPALKSPLQSVVVRRRSPRPSPVPKPSPPLSSTSQMGSTLPSGAGYQSGTHQGQFDHGSGSLSPSKKSPVGKSPPSTGSTYGSSQKEESAASGGAAYTKRYLEEQKTENGKDKEQKQTNTDKEKIKEKGSFSDTGLGDGKMKSDSFAPKTDSEKPFRGSQSPKRYKLRDDFEKKMADFHKEEMDDQDKDKAKGRKESEFDDEPKFMSKVIGANKNQEEEKSGKWEGLVYAPPGKEKQRKTEELEEESFPERSKKEDRGKRSEGGHRGFVPEKNFRVTAYKAVQEKSSSPPPRKTSESRDKLGAKGDFPTGKSSFSITREAQVNVRMDSFDEDLARPSGLLAQERKLCRDLVHSNKKEQEFRSIFQHIQSAQSQRSPSELFAQHIVTIVHHVKEHHFGSSGMTLHERFTKYLKRGTEQEAAKNKKSPEIHRRIDISPSTFRKHGLAHDEMKSPREPGYKAEGKYKDDPVDLRLDIERRKKHKERDLKRGKSRESVDSRDSSHSRERSAEKTEKTHKGSKKQKKHRRARDRSRSSSSSSQSSHSYKAEEYTEETEEREESTTGFDKSRLGTKDFVGPSERGGGRARGTFQFRARGRGWGRGNYSGNNNNNSNNDFQKRNREEEWDPEYTPKSKKYYLHDDREGEGSDKWVSRGRGRGAFPRGRGRFMFRKSSTSPKWAHDKFSGEEGEIEDDESGTENREEKDNIQPTTE
B5: SIPA1 (protein, UniProt Q96FS4 1-1042, looked up)
Signal-induced …: MPMWAGGVGSPRRGMAPASTDDLFARKLRQPARPPLTPHTFEPRPVRGPLLRSGSDAGEARPPTPASPRARAHSHEEASRPAATSTRLFTDPLALLGLPAEEPEPAFPPVLEPRWFAHYDVQSLLFDWAPRSQGMGSHSEASSGTLASAEDQAASSDLLHGAPGFVCELGGEGELGLGGPASPPVPPALPNAAVSILEEPQNRTSAYSLEHADLGAGYYRKYFYGKEHQNFFGMDESLGPVAVSLRREEKEGSGGGTLHSYRVIVRTTQLRTLRGTISEDALPPGPPRGLSPRKLLEHVAPQLSPSCLRLGSASPKVPRTLLTLDEQVLSFQRKVGILYCRAGQGSEEEMYNNQEAGPAFMQFLTLLGDVVRLKGFESYRAQLDTKTDSTGTHSLYTTYQDHEIMFHVSTMLPYTPNNQQQLLRKRHIGNDIVTIVFQEPGSKPFCPTTIRSHFQHVFLVVRAHTPCTPHTTYRVAVSRTQDTPAFGPALPAGGGPFAANADFRAFLLAKALNGEQAAGHARQFHAMATRTRQQYLQDLATNEVTTTSLDSASRFGLPSLGGRRRAAPRGPGAELQAAGSLVWGVRAAPGARVAAGAQASGPEGIEVPCLLGISAEALVLVAPRDGRVVFNCACRDVLAWTFSEQQLDLYHGRGEAITLRFDGSPGQAVGEVVARLQLVSRGCETRELALPRDGQGRLGFEVDAEGFVTHVERFTFAETAGLRPGARLLRVCGQTLPSLRPEAAAQLLRSAPKVCVTVLPPDESGRPRRSFSELYTLSLQEPSRRGAPDPVQDEVQGVTLLPTTKQLLHLCLQDGGSPPGPGDLAEERTEFLHSQNSLSPRSSLSDEAPVLPNTTPDLLLATTAKPSVPSADSETPLTQDRPGSPSGSEDKGNPAPELRASFLPRTLSLRNSISRIMSEAGSGTLEDEWQAISEIASTCNTILESLSREGQPIPESGDPKGTPKSDAEPEPGNLSEKVSHLESMLRKLQEDLQKEKADRAALEEEVRSLRHNNRRLQAESESAATRLLLASKQLGSPTADLA
B6: HDAC7 (protein, UniProt Q8WUI4 1-952, looked up)
Histone deacetylase 7: MDLRVGQRPPVEPPPEPTLLALQRPQRLHHHLFLAGLQQQRSVEPMRLSMDTPMPELQVGPQEQELRQLLHKDKSKRSAVASSVVKQKLAEVILKKQQAALERTVHPNSPGIPYRTLEPLETEGATRSMLSSFLPPVPSLPSDPPEHFPLRKTVSEPNLKLRYKPKKSLERRKNPLLRKESAPPSLRRRPAETLGDSSPSSSSTPASGCSSPNDSEHGPNPILGSEALLGQRLRLQETSVAPFALPTVSLLPAITLGLPAPARADSDRRTHPTLGPRGPILGSPHTPLFLPHGLEPEAGGTLPSRLQPILLLDPSGSHAPLLTVPGLGPLPFHFAQSLMTTERLSGSGLHWPLSRTRSEPLPPSATAPPPPGPMQPRLEQLKTHVQVIKRSAKPSEKPRLRQIPSAEDLETDGGGPGQVVDDGLEHRELGHGQPEARGPAPLQQHPQVLLWEQQRLAGRLPRGSTGDTVLLPLAQGGHRPLSRAQSSPAAPASLSAPEPASQARVLSSSETPARTLPFTTGLIYDSVMLKHQCSCGDNSRHPEHAGRIQSIWSRLQERGLRSQCECLRGRKASLEELQSVHSERHVLLYGTNPLSRLKLDNGKLAGLLAQRMFVMLPCGGVGVDTDTIWNELHSSNAARWAAGSVTDLAFKVASRELKNGFAVVRPPGHHADHSTAMGFCFFNSVAIACRQLQQQSKASKILIVDWDVHHGNGTQQTFYQDPSVLYISLHRHDDGNFFPGSGAVDEVGAGSGEGFNVNVAWAGGLDPPMGDPEYLAAFRIVVMPIAREFSPDLVLVSAGFDAAEGHPAPLGGYHVSAKCFGYMTQQLMNLAGGAVVLALEGGHDLTAICDASEACVAALLGNRVDPLSEEGWKQKPNLNAIRSLEAVIRVHSKYWGCMQRLASCPDSWVPRVPGADKEEVEAVTALASLSVGILAEDRPSEQLVEEEEPMNL
B7: TFEB (protein, UniProt P19484 1-476, looked up)
Transcription factor EB: MASRIGLRMQLMREQAQQEEQRERMQQQAVMHYMQQQQQQQQQQLGGPPTPAINTPVHFQSPPPVPGEVLKVQSYLENPTSYHLQQSQHQKVREYLSETYGNKFAAHISPAQGSPKPPPAASPGVRAGHVLSSSAGNSAPNSPMAMLHIGSNPERELDDVIDNIMRLDDVLGYINPEMQMPNTLPLSSSHLNVYSSDPQVTASLVGVTSSSCPADLTQKRELTDAESRALAKERQKKDNHNLIERRRRFNINDRIKELGMLIPKANDLDVRWNKGTILKASVDYIRRMQKDLQKSRELENHSRRLEMTNKQLWLRIQELEMQARVHGLPTTSPSGMNMAELAQQVVKQELPSEEGPGEALMLGAEVPDPEPLPALPPQAPLPLPTQPPSPFHHLDFSHSLSFGGREDEGPPGYPEPLAPGHGSPFPSLSKKDLDLMLLDDSLLPLASDPLLSTMSPEASKASSRRSSFSMEEGDVL

System: GFP-14-3-3β and its binding proteins
Assay: GFP-14-3-3β co-IP with LC-MS/MS label-free quantification, untreated versus PP1c-treated
Set-up: species or system human
Details: log2 difference; pairwise comparison PP1 vs untreated, label-free quantification, 3 replicates each

With B1 the “Difference (log2), PP1 vs untreated” value was 1.555.

Same assay, conditions: pairwise comparison PP1 vs untreated, student's t-test; 3 replicates each; LC-MS/MS label-free quantification

Compared with B2, B3 is higher in “Difference (log2), PP1 vs untreated” value: -2.839 log2 for the first, -2.475 log2 for the second.

Going from B4 to B5, the “Difference (log2), PP1 vs untreated” value rises from -2.776 log2 to -2.506 log2.

Going from B6 to B7, the “Difference (log2), PP1 vs untreated” value falls from -2.551 log2 to -2.76 log2.

System: GFP-14-3-3β
Assay: GFP-14-3-3β co-IP with LC-MS/MS, untreated GFP-14-3-3β versus GFP control (14-3-3 interactome)
Type: binding, human
Details: log2 difference; pairwise comparison untreated vs GFP, label-free quantification, 3 replicates each

In the case of B1, the “Difference (log2), untreated vs GFP” value is reported as 3.395.

Same assay, conditions: pairwise comparison untreated GFP-14-3-3β vs GFP, student's t-test; 3 replicates each; LC-MS/MS label-free quantification

Compared with B2, B3 is lower in “Difference (log2), untreated vs GFP” value: 3.895 log2 for the first, 3.699 log2 for the second.

Going from B4 to B5, the “Difference (log2), untreated vs GFP” value rises from 4.049 log2 to 4.698 log2.

Going from B6 to B7, the “Difference (log2), untreated vs GFP” value falls from 7.896 log2 to 5.784 log2.
